Holding throughout (assay): co-IP; anti-Flag M2 affinity gel on extracts of human HEK 293 cells transfected with mouse 3xFlag Cyclin A2 alleles; endogenous partners detected by Western blot; densitometry (ImageQuantTL) normalised to immunoprecipitated Cyclin A2, percent of WT; repeated 3 times
What all share (details): partners not purified
In general terms: A western blot detects proteins with antibodies after separation by electrophoresis.

The target in assay [1] is T1, Cyclin A2 M200A, C-terminally fused to 3 Flag tags (mouse, UniProt P51943 1-422, M200A).
T1 construct: Cyclin A2, mouse; cDNA obtained from NIH3T3 cells by RT-PCR; source: NIH3T3 or HEK 293 cells, transfected, in cell extracts; not shown: 3xFlag, C-terminal, kept
T1 sequence (P51943 whole entry M200A, the tested form may be a part): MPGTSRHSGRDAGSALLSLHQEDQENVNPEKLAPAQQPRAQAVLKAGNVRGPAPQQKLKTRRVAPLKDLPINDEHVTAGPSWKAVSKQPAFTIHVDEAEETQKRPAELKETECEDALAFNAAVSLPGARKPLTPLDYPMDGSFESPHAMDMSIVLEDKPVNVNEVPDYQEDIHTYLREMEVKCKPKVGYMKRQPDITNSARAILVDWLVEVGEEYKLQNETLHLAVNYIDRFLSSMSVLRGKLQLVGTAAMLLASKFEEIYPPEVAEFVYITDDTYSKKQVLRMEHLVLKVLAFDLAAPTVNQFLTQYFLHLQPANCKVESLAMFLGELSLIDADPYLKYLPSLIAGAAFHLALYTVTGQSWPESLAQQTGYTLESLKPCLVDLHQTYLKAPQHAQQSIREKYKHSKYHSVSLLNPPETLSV

Assay [2] concerns the target T2, Cyclin A2 D171A, C-terminally fused to 3 Flag tags (mouse, UniProt P51943 1-422, D171A).
T2 construct: Cyclin A2, mouse; cDNA obtained from NIH3T3 cells by RT-PCR; source: NIH3T3 or HEK 293 cells, transfected, in cell extracts; not shown: 3xFlag, C-terminal, kept

Assay [3] deals with T3, Cyclin A2 WT, C-terminally fused to 3 Flag tags (mouse, UniProt P51943 1-422).
T3 construct: Cyclin A2, mouse; cDNA obtained from NIH3T3 cells by RT-PCR; Same construct transfected into mouse NIH3T3 (assay a1) and human HEK 293 (assay a2); also called WT Cyclin A2 allele; Flag tagged WT Cyclin A2; source: NIH3T3 or HEK 293 cells, transfected, in cell extracts; not shown: 3xFlag, C-terminal, kept
T3 sequence (P51943 whole entry, the tested form may be a part): as the sequence (P51943 whole entry M200A, the tested form may be a part) above, with A200M counted along it

The target in assay [4] is T4, Cyclin A2 L204A, C-terminally fused to 3 Flag tags (mouse, UniProt P51943 1-422, L204A).
T4 construct: Cyclin A2, mouse; cDNA obtained from NIH3T3 cells by RT-PCR; source: NIH3T3 or HEK 293 cells, transfected, in cell extracts; not shown: 3xFlag, C-terminal, kept
T4 sequence (P51943 whole entry L204A, the tested form may be a part): as the sequence (P51943 whole entry M200A, the tested form may be a part) above, with A200M, L204A counted along it

The record followed here is PMC3145769, “Cyclin A2 Mutagenesis Analysis: A New Insight into CDK Activation and Cellular Localization Requirements” (PLoS ONE, 2011).

T2 sequence (P51943 whole entry D171A, the tested form may be a part): as the sequence (P51943 whole entry M200A, the tested form may be a part) above, with D171A, A200M counted along it

B1: p107 (endogenous, HEK 293) (natural protein, human (endogenous in HEK 293), UniProt P28749 1-1068, looked up)
chain: MFEDKPHAEGAAVVAAAGEALQALCQELNLDEGSAAEALDDFTAIRGNYSLEGEVTHWLACSLYVACRKSIIPTVGKGIMEGNCVSLTRILRSAKLSLIQFFSKMKKWMDMSNLPQEFRERIERLERNFEVSTVIFKKYEPIFLDIFQNPYEEPPKLPRSRKQRRIPCSVKDLFNFCWTLFVYTKGNFRMIGDDLVNSYHLLLCCLDLIFANAIMCPNRQDLLNPSFKGLPSDFHTADFTASEEPPCIIAVLCELHDGLLVEAKGIKEHYFKPYISKLFDRKILKGECLLDLSSFTDNSKAVNKEYEEYVLTVGDFDERIFLGADAEEEIGTPRKFTRDTPLGKLTAQANVEYNLQQHFEKKRSFAPSTPLTGRRYLREKEAVITPVASATQSVSRLQSIVAGLKNAPSDQLINIFESCVRNPVENIMKILKGIGETFCQHYTQSTDEQPGSHIDFAVNRLKLAEILYYKILETVMVQETRRLHGMDMSVLLEQDIFHRSLMACCLEIVLFAYSSPRTFPWIIEVLNLQPFYFYKVIEVVIRSEEGLSRDMVKHLNSIEEQILESLAWSHDSALWEALQVSANKVPTCEEVIFPNNFETGNGGNVQGHLPLMPMSPLMHPRVKEVRTDSGSLRRDMQPLSPISVHERYSSPTAGSAKRRLFGEDPPKEMLMDKIITEGTKLKIAPSSSITAENVSILPGQTLLTMATAPVTGTTGHKVTIPLHGVANDAGEITLIPLSMNTNQESKVKSPVSLTAHSLIGASPKQTNLTKAQEVHSTGINRPKRTGSLALFYRKVYHLASVRLRDLCLKLDVSNELRRKIWTCFEFTLVHCPDLMKDRHLDQLLLCAFYIMAKVTKEERTFQEIMKSYRNQPQANSHVYRSVLLKSIPREVVAYNKNINDDFEMIDCDLEDATKTPDCSSGPVKEERGDLIKFYNTIYVGRVKSFALKYDLANQDHMMDAPPLSPFPHIKQQPGSPRRISQQHSIYISPHKNGSGLTPRSALLYKFNGSPSKSLKDINNMIRQGEQRTKKRVIAIDSDAESPAKRVCQENDDVLLKRLQDVVSERANH
notes: p107, endogenous protein of human HEK 293 cells, detected by Western blot; source: endogenous, HEK 293 cell extract
Turning to B1, the “percent co-precipitated relative to WT” value worked out at 57.4% in assay [1], 95% in assay [2], 100% in assay [3] and 5.3% in assay [4].
